# Experimental data reported in the DeepSol protein solubility set.
# Test: soluble on expression in E. coli; label from the status in PepcDB or PDB records
row,Sequence,soluble on expression in E. coli
1,MGSDKIHHHHHHMSEILVLGGGMVGISTALELQARGHAVTVVDRKAPGQETSYGNAGLIQAEAAEPYAMPRALPEILGILSGRSNDVIWSLRGVLSQLPALWQYYRYSHPHRHLALSQPNAHLIRTACADHDRWITAAAAQDLIAQDGYLSVFQDAAMFDSLASDLERLRQSYGVEATAMSGPQLCKMEPLYQRPPVGGIHWRDVWSCAAPGELVARYAALFQSRGGEICTGDASTLRPEGSAWALMSEAGRLHGEHAVIALGPWTPPILAQLGYRVRMIMKHGAHRMYPTGPKLRRPVHDAQHGIVLSSMKGGLRMTCGVALEASGRVPDARQLDRGAKGLAAYMDLGTAEGGPIWHGTRPFLPDMLPMVGAAPRHDRLWFHFGHGHQGFTLGPTTARHLGALIDGGDSAGIAALLPQNRPAVLS,not soluble
2,MTYETISVRMNRSDRNIRWGFSVRQQADGLIIDRVEAESLSDKAGVKHNDKVDQINGRSTRGLDAASANRLIDDSFNEVRLSLQRFVTSHTTLPWTLNEKDNKMVVEEMKPGFGTGFGSGFGSSNFVNSSFNQNQNNFGSHFGTGSGVNQRNITNTNTSSSNHQSSTFHSSSHQSSGNYGSGGFSPSSHHNIPIRHSPAPPFTTSNSSYNNIKKSTDNTILPGSANYNPNNSSNYNSVPTGFGASSGGYGGSGGFKGHSNGSAIPAQAPPTSYSYNNGATSQPYGAGSGGTPLNQMTFINTSPAPGANGAYGAQCGLSPSKVFYHSPSGRSRNELSPGAAVHHLQYNSPMNLYSSEATAEQLYQQTGAVPEGPVPHDKSPAYLTSETRKLIEEEARGRFQRGKSPSSQSSCFKRISHAVGADH,not soluble
3,VIEPARGLGDGNIERKIRGLLDSWMTWNHSFQGSCMFLDAWNDAADKNCPLQAALRKAIDTWLSYLEIQIAKGKENQEFISDLDTRQATFDLYGQYLSAHVFYSIKGEEESLRLFWQGIDNLLARWRG,not soluble
4,GPGSMLAASRLARGVAETVTRENFTISRLTNGLRVITCEDGNGITGMGLFSLNGPKFEEEGSFGAAAVMESLPLRSNTRMTTETISQSLGVFGNAYKVTNNREAMSVMLMMPRYHRKEGLDVLNGMWLHPTDNDEEFAVAKAQTLHRSSLMSRDATSMLFELVHKAGWSGRGLGNPLSPTEQQLEQLTLERFHAFHRRYTTPERTVLAATGVADHKTFVQEAEVRLQFPQATAPSLHSSSAETANKAAAATAQLHPYTGGCEYVQNTMAPESMNKFQEKNLSHIALFFQAIPMAHPDYFTFSVIQTLLGGGTSFSSGGPGKGMQTKLFREVLNREPNVHGMECITAWYSDGGLIGLYGSAPHEHVNNLLKIIIFQAASISQRVTPVHVEMAKNQLSSQLILLGEGREQLLNDMGFNLLVHNYTITPQETIQGSAQVTMARLHEVCAQLIEHPITFAVYGETKGMPEYRELVQALKKSYASLSKSTPA,not soluble
5,MPDHLGDDMRKTKKDDTKEEEKNFQALDEGDIAVLKRYGQGPYAEQLKTLDADIENCLKKVNELSGVKESDTGLAPPALWDIAADKQAMQQEQPLQVARCTKIITSDKHDPRYLINVKQFAKFVVDLADSVAPTDIEEGMRVGVDRNKYQIHLPLPAKIDPTVTMMQVEEKPDVTYSDVGGCKDQIEKLREVVETPLLHPERYVNLGIEPPKGVLLYGPPGTGKTLCARAVANRTDACFIRVIGSELVQKYVGEGARMVRELFEMARTKKACLIFFDEIDAVGGARFDDGQGGDNEVQRTMLELINQLDGFDPRGNIKVLMATNRPDTLDPALMRPGRLDRKVEFALPDLAGRAHILKIHAKQMSVERDIRYDLLARLCPNSTGAEIRSVCTEAGMFAIRARRKVATEKDFLEAINKVVKGYAKFSATPRYLTHN,not soluble
6,MHLSRCRKCGRVMKGERIDPYRVKLTCSCGFSDFRTMTEKVKTVNPFFQKGGFSPLLESERGKMVLTMQRANREHLEIISLEEISMLVSSDFDLPEVLQHVTAKVATQLKVSVCNIYLREGDEVVLAATHGFDPAFIGKIRIKIGDGITGSVARDGQYISLSRASQDPRYRYFPELQEEKYNSMLSFPIGDKKEVYGVINLNTTSIRSFHEDEIYFVSIIANLILTAIKLRQQVASSRKAAEASA,not soluble
7,MGSDKIHHHHHHMLNQVYRLVSPRQFEVETVAEEVDADDLIVRPKFLSICHADTRYFFGQRSQAALRAKLPMALIHEAVGEVVYDPRNEYKPGTLVAMVPNTPVKKDSIIQENYLPSSRFRSSGYDGFMQEYVCLRRDRAITVPSDFDPHMAAFIEMVSVGVQALTKLESTMDEDQRVIGIWGDGNLGYITATLVKQIFPDSQLLVFGRHQSKLDYFSFADKTYLVDDIPADVKVSQALECTGGQGSEAAIQQIIQHIQPMGTAILMGVSENPVGIDTRSVLAEGLTLRGVSRSSREDFKRAVDILSSSPVTRERLQNLVGYVQKVSSIQDITNFFDSALTNYWGKEVMEWDV,not soluble
8,MGKRSGASYRSRRPKLACADWDKRMMQTQPFRLPRFTPFGVIEKGVELATGLSQLERYYQQRPTTRDGFEFMRYTLEALNVHYQVDRGRVEQIPAQGPVVIVANHPLGAIEGVILADLVGQVRKDVKVLANQLLKRLPEIEPLFIGVDVFNGAQASKTNARGIREAHRHLAEGGVLIVFPAGEVSTPQKETGQLSDIDWSQSVAKFIQRSQARCVPIYIHGRNSAWFYRAGKIHPLLRTAMLGRELLNKSASTISLCIGQPIPYAELKEFTKDEDVVNYLRLNTYLMSPHGQVESAKVSFTIPVIDPVPKAALIAELAQLDKQAKLLEQGEFTVYCVPSTHIPLMMQEIGRVREISFRAVGEGSGQACDVDAYDHHYWQLFVWNREQSELVGAYRMGLVDKIVAERGLQGLYSRSLFHYDHAFLATLENAIELGRSVVAEQYQRNLNSLLLLWKGIARFVELNPHYTHLFGPVSISNDYSPAARQLMAATLSIHHYDQHKAALVSPSTPLRAGTEVFWQKSLLSALASVSLLSKVVARMEQGNGLPVLLRQYLGMNGKLVCLNVDPAFNDALDGLIVVNLKQVPLKTLAKYMGKEAAQHYLCSVT,not soluble
9,MRQKGHRHGRTVSPCAGCKLLRRKCVKDSCVFAPYFPAKEPYKFAIVHKIFGASNVNKMLQELSENHRSDAVDSMVYEANARIQDPVYGCVGTISSLHRQLETLQTQLAFAQAELIHIRTLHRIHTKPPPYTASTVTFPSNKDFYSDIDMAVAYTDDAGDFLWSC,soluble
10,MNARKAPEFPAWPQYDDAERNGLVRALEQGQWWRMGGDEVNSFEREFAAHHGAAHALAVTNGTHALELALQVMGVGPGTEVIVPAFTFISSSQAAQRLGAVTVPVDVDAATYNLDPEAVAAAVTPRTKVIMPVHMAGLMADMDALAKISADTGVPLLQDAAHAHGARWQGKRVGELDSIATFSFQNGKLMTAGEGGAVVFPDGETEKYETAFLRHSCGRPRDDRRYFHKIAGSNMRLNEFSASVLRAQLARLDEQIAVRDERWTLLSRLLGAIDGVVPQGGDVRADRNSHYMAMFRIPGLTEERRNALVDRLVEAGLPAFAAFRAIYRTDAFWELGAPDESVDAIARRCPNTDAISSDCVWLHHRVLLAGEPELHATAEIIADAVARA,soluble
11,MSELWYTEKQTKNFGITMKVNKTLHTEQTEFQHLEMVETEEFGNMLFLDGMVMTSEKDEFVYHEMVAHVPLFTHPNPEHVLVVGGGDGGVIREILKHPSVKKATLVDIDGKVIEYSKKFLPSIAGKLDDPRVDVQVDDGFMHIAKSENQYDVIMVDSTEPVGPAVNLFTKGFYAGIAKALKEDGIFVAQTDNPWFTPELITNVQRDVKEIFPITKLYTANIPTYPSGLWTFTIGSKKYDPLAVEDSRFFDIETKYYTKDIHKAAFVLPKFVSDLIKLEHHHHHH,soluble
12,MSLKVHGVILMNIEEWEEYRYVEAGIKESITLIEDPGLKKMVEHVCHSGGKRIRPIILLLVSEICSGSYSRSLNAALAVEMMHSASLIHDDLLDQGLVRRNLPSAPEKFGPSGALLCGDYLIAKSIAFISPYGEKVIQDFGKAGMDMAEGEVLDLKLEDESFGENDYFKCIYKKTASLFAISASIGAYTGGAEEELAERFSHFGNALGTAYQIVDDILEFLEVVEGKESKFTSETLPHIYMKSTSKEEALKKSIDCVKLHVAAAKETLETFRECPARDKLFQITDYITVDMLENLEGHHHHHH,soluble
13,MRVIEVKNLTFSYDGKHNVLEDVSFYVEKGDFLGIVGPNGAGKSTLLKLILGFLKPKSGEIYLFGKKIEEFKDWKRVGYVPQRLSVEHAFPGTVKELLSSVCEDKKEIDYLVEFLKLKNIVNKQFTKLSGGQQQRVLLAMALSYNPELILLDEPTVGLDVHAINHFMSILLDLNMNHKKSIVMISHDIGTLLKHASKILCLNKKVCYFGEPEGAIEYIEEAFGLRGFLHGVS,soluble
14,MMGNKLTLPAELPDEQDLRAVLAYNMRLFRVNKGWSQEELARQCGLDRTYVSAVERKRWNIALSNIEKMAAALGVAAYQLLLPPQERLKLMTNSADTRQMPSESGI,not soluble
15,MSLTIFDNYEVWFVIGSQHLYGPETLRQVTQHAEHVVNALNTEAKLPCKLVLKPLGTTPDEITAICRDANYDDRCAGLVVWLHTFSPAKMWINGLTMLNKPLLQFHTQFNAALPWDSIDMDFMNLNQTAHGGREFGFIGARMRQQHAVVTGHWQDKQAHERIGSWMRQAVSKQDTRHLKVCRFGDNMREVAVTDGDKVAAQIKFGFSVNTWAVGDLVQVVNSISDGDVNALVDEYESCYTMTPATQIHGKKRQNVLEAARIELGMKRFLEQGGFHAFTTTFEDLHGLKQLPGLAVQRLMQQGYGFAGEGDWKTAALLRIMKVMSTGLQGGTSFMEDYTYHFEKGNDLVLGSHMLEVCPSIAAEEKPILDVQHLGIGGKDDPARLIFNTQTGPAIVASLIDLGDRYRLLVNCIDTVKTPHSLPKLPVANALWKAQPDLPTASEAWILAGGAHHTVFSHALNLNDMRQFAEMHDIEITVIDNDTRLPAFKDALRWNEVYYGFRREGHHHHHH,soluble
16,MEAGSIVLGLVGKTNVGKSTFFAAATEVPVKIENRPFVTIEPNVGVGYARKRCAHVELGLPRCDPVNSLCIEGWRFIPVKLLDVAGLVPGAHRGRGLGNRFLDDVRKADALLLVVDASGSTDPEGVPVKPGSYDPVEEVGLMLGEIYEWMLQNLARDWERFARRVDTAGNVDLVTALSQRLSGFEIPRGVVAGVLEETGLGEKRLSSWSREDLRLFVKLVLERGKPAVILANKVDVPGAEENVERLGSSYPGIPVVPASALAELMLRRLAREGRVRYIPGDPDFTVKDPGGLGGKALKALELVRERVMKRWGGTGVVQAINTAVFDVLDMIAVYPVEDPNRYTDREGRILPDVILVKRGSTPRDLAYRIHTDLGKTFLYAVNAKTKQRVGEGYRLQDGDVVKIVAAAGKR,soluble
17,MSNPILTSTLIILRGNSSSGKTTIAKQLQEHFGQGTLLVSQDVVRRDMLRVHDTMGNLSHDLLFEITKYGKGKCEFVILEGILNSHRYGEMLKELIRYFDENAFAYYFDLSLEETIRRHNTRDKRHEFGEDSLQKWYNPHDTIKVATETIFTDNFTQKDIFDAILNDVAIEKQALEHHHHHH,soluble
18,MSLSKKIVIVGGVAGGASTAARLRRLDENNQIIMFERGPHVSFSNCCLPYYLSGKVENHEDLVLMTPEKFYSQYRIDARVYTEVVSINRKAKEVTVRNVVSGQEYTESYDKLVLSPGAKAIVPPIKGIEDVNVFTVRNVVDIAKLDSFIKDNNSKNISVIGGGFIGVEVAENLHEAGYNVTLIEAMDQIMKPFDYDMVQVLHKEMYDKGVNLIVGDKVSSFESGKVVLESGKKINSDAVVMAIGVAPETDLAREAGLEIGQTGAIKVNQNYLTNDKDIYAVGDAVEVYNSLTNSISRLPLAGPAQKQARAVADHIHGRPSRNSGYIGSSCVQIFDYNGASTGLTEGQIKAMNLSLNYDVVRVIPQDKVGLMPGSEPLHFKLIFEVPTGRILGAQAIGKGNADKRVDIIATLIKMGGTVEDLKDLELCYAPPFGTAKDVVNHAALVASNLLEGTFKQVYVHEVRDLVESGACIIDVREVSEYEAGHIKGAKNLPLSEIRDRLDEIPTDRPVYLHCRSAQRSYNACLALQHLGFDNIYNVSGGFMGISFYEYYNDKVQDREPIVTEYNFNEGHHHHHH,soluble
